From patent publication US20170165337A1 (IMMATICS BIOTECHNOLOGIES, published 2017)

biological target: T1, HLA-A*02:01 (human); test: UV peptide-exchange ELISA
T1 construct: MHC class I monomer of the UV-ligand exchange assay; also called peptide-receptive MHC molecules; MHC class I
From the text: Candidate peptides for T cell based therapies according to the present invention were further tested for their MHC binding capacity (affinity). The individual peptide-MHC complexes were produced by UV-ligand exchange, where a UV-sensitive peptide is cleaved upon UV-irradiation, and exchanged with the peptide of interest as analyzed. Only peptide candidates that can effectively bind and stabilize the peptide-receptive MHC molecules prevent dissociation of the MHC complexes. To determine the yield of the exchange reaction, an ELISA was performed based on the detection of the light chain (β2m) of stabilized MHC complexes. The assay was performed as generally described in Rodenko et al. (Rodenko et al., 2006).
96 well MAXISorp plates (NUNC) were coated over night with 2 ug/ml streptavidin in PBS at room temperature, washed 4× and blocked forl h at 37° C. in 2% BSA containing blocking buffer. Refolded HLA-A*02:01/MLA-001 monomers served as standards, covering the range of 15-500 ng/ml. Peptide-MHC monomers of the UV-exchange reaction were diluted 100 fold in blocking buffer. Samples were incubated for 1 h at 37° C., washed four times, incubated with 2 ug/ml HRP conjugated anti-β2m for 1 h at 37° C., washed again and detected with TMB solution that is stopped with […]. Absorption was measured at 450 nm. Candidate peptides that show a high exchange yield (preferably higher than 50%, most preferred higher than 75%) are generally preferred for a generation and production of antibodies or fragments thereof, and/or T cell receptors or fragments thereof, as they show sufficient avidity to the MHC molecules and prevent dissociation of the MHC complexes.

Row | Binder | peptide exchange yield [%]
1 | GLQENLDVVV | ≥ 75
2 | KIMDYSLLLGV | ≥ 75
3 | LLRDGIELV | 50 to 75
4 | ILQPMDIHV | 50 to 75
5 | ATYSGLESQSV | 20 to 50
6 | LLYDNVPGA | 50 to 75
7 | GIIDINVRL | 20 to 50
8 | ILQALAVHL | 50 to 75
9 | FMHQIIDQV | ≥ 75
10 | AVLGLVWLL | 50 to 75
11 | ALWDPVIEL | 50 to 75
12 | GVATAGCVNEV | ≥ 75
13 | ALYLTEVFL | ≥ 75
14 | GLDDAEYAL | 20 to 50
15 | ILPTLEKELFL | 50 to 75
16 | FLYIRQLAI | 50 to 75
17 | GLDDLLLFL | 50 to 75
18 | ILGDILLKV | 50 to 75
19 | FLLNLQNCHL | ≥ 75
20 | NLLDDRGMTAL | 50 to 75

Row | Binder | peptide exchange yield [%]
21 | ILLGIQELL | 50 to 75
22 | KTVEPPISQV | 20 to 50
23 | GLVETELQL | 50 to 75
24 | LLPTGVFQV | 50 to 75
25 | KLDETGVAL | 20 to 50
26 | FLGGLSPGV | 50 to 75
27 | KLKDRLPSI | 20 to 50
28 | FLAEASVMTQL | 50 to 75
29 | LLSAAEPVPA | 20 to 50
30 | LLVQEPDGLMV | 50 to 75
31 | AMNISVPQV | 50 to 75
32 | AVLLVLPLV | 50 to 75
33 | AMAGDVVYA | 50 to 75
34 | ILARDILEI | 50 to 75
35 | ILAGEMLSV | 50 to 75
36 | FLQDSKVIFV | 50 to 75
37 | FLLEDLSQKL | 50 to 75
38 | NLLDPGSSYLL | 50 to 75
39 | AVLHLLLSV | 20 to 50
40 | GLLESGRHYL | 50 to 75

Next, values leading:

Row | peptide exchange yield [%] | Binder
41 | 50 to 75 | TLLDWQDSL
42 | 50 to 75 | SLWNAGTSV
43 | 50 to 75 | QLLPVSNVVSV
44 | 20 to 50 | TLLDQLDTQL
45 | 50 to 75 | YTLDSLYWSV
46 | 50 to 75 | NLWSVDGEVTV
47 | 50 to 75 | TVLPVPPLSV
48 | 50 to 75 | SQWEDIHVV
49 | 50 to 75 | TLLQVFHLL
50 | 50 to 75 | SLDDVEGMSV
51 | 50 to 75 | YMAPEVVEA
52 | 50 to 75 | RLDYITAEI
53 | 20 to 50 | TLTDEQFLV
54 | 50 to 75 | TLLADDLEIKL
55 | 50 to 75 | VLLFIEHSV
56 | 50 to 75 | RLLDEQFAVL
57 | 50 to 75 | YLFEEAISM
58 | 50 to 75 | VLDELPPLI
59 | 50 to 75 | VLNDGAPNV
60 | 50 to 75 | VLLEYHIAYL
61 | 50 to 75 | SLVEAQGWLV
62 | 50 to 75 | QLIPKLIFL
63 | 50 to 75 | YLDDLLPKL
64 | 50 to 75 | VLGEYSYLL
65 | 50 to 75 | TILDYINVV
66 | 20 to 50 | VIRNIVEAA
67 | 20 to 50 | VMILKLPFL
